Assay results published in patent publication US20110207656A1 (Dana-Farber, published 2011).
Ends that are not written are not given here.

Molecular target: T1, purified FADD protein (human, UniProt Q13158 1-208, limits assumed)
T1 sequence: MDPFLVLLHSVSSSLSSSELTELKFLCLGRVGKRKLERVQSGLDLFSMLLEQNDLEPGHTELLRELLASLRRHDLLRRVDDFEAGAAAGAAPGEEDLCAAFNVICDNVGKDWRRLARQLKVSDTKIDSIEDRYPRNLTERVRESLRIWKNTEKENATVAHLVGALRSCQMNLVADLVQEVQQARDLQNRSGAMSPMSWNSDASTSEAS
Assay: GST pull-down of purified FADD, anti-FADD immunoblot
Protocol: In vitro binding assays. Purified GST, GST-MUC1-CD(1-72), GST-MUC1-CD deletion mutants, GST-caspase-8, GST-caspase-8 deletion mutants, GST-FADD, GST-N-FADD and GST-C-FADD protein (36) were purified from E. coli (BL21 DE3) and immobilized on glutathione-agarose beads (Pierce). His-MUC1-CD(1-72) and His-caspase-8 deletion mutant proteins were purified on Ni-NTA beads (Qiagen, Valencia, Calif.). GST and GST fusion proteins bound to glutathione beads were incubated with purified soluble proteins for 2 hours at 4° C., and washed. Adsorbates bound to the beads were analyzed by solubilizing the protein/bead mixture in Laemli buffer following by sodium dodecyl sulfate polyacrylamide gel electrophoresis (SDS-PAGE) and immunoblotting. For competition studies, GST-caspase-8 DED protein bound to FADD was incubated with increasing amounts of MUC1-CD protein. Precipitated proteins were subjected to SDS-PAGE and immunoblot analysis. In certain studies, binding was performed in the presence of a synthetic peptide ([…]) (SEQ ID NO:3) derived from amino acids 1-20 from MUC1-CD (Molecular Biology Core Facility, Dana-Farber Cancer Institute).

binding result: no binding
B1: GST-MUC1-CD(1-45) (other)
chain: {GST}-CQCRRKNYGQLDIFPARDTYHPMSEYPTYHTHGRYVPPSSTDRSP
modifications: cysteine pairing not given here; also: linker to GST not given here
notes: also called GST-MUC1-CD deletion mutant; not shown: GST fusion partner at the N end, and any linker to it
